The record followed here is a protein production outcome set (Wang et al. 2014).

A short description of this series: label from the status in PepcDB records.
For “MNKKRIVFGLLSFFLPIFLVFGGLLFFLLLLTSTSDTSKNDCIQPSINNPTDATDTPKSIEQFVKSHKDAYLLSWKAGGFLPSASISQTMVENGFNFTNPSGTSFWQAHNMGGVKTSKKEDFPVTLATFGQDSVDISGTKPGSNVGDGTGGAYTWFKDYNAGIVGKAEFMAHQTLYTGAINNTDGLSTLSAIYSGGWATDPTYLMKLQATYNSLGKQFQWLDQEAIQKYGNAPFKKSELVLNIPGKSPITNEKYGKNSDCVVTSDTSDQVTGQNTAPSLEVPSAYKGKLTLPPIDSNDYAGNNYPFGQCTWYAYNRMAQIGKPIEWFSGDGGNGAGWANSARAKGYTVVKVKPSVGWAASMQGGIGGSAPPYGHVAVVEYVNSDGSILVSEANVINQGSGTRSWRVLDRATVEQIDFIQGKGALEHHHHHH”, the protein production result is “failed”. The value for “SLLGQKSQRYKAEEGLQAQGEAPGLMDVQIPTAEEQKAASSSSTLIMGTLEEVTDSGSPSPPQSPEGASSSLTVTDSTLWSQSDEGSSSNEEEGPSTSPDPAHLESLFREALDEKVAELVRFLLRKYQIKEPVTKAEMLESVIKNYKNHFPDIFSKASECMQVIFGIDVKEVDPAGHSYILVTCLGLSYDGLLGDDQSTPKTGLLIIVLGMILMEGSRAPEEAIWEALSVMGLYDGREHSVYWKLRKLLTQEWVQENYLEYRQAPGSDPVRYEFLWGPRALAETSYVKVLEHVVRVNARVRISYPSLHEEALGEEKGV” was “not failed”; that for “MHEKVPKKTYDSELYNGYLAIYNGYGDLRYFTVKIENDICVSLVWNTGMTKKSRGKKRIRINVYRPKIAPAKNKKPKPTKEQLMDPEFSDEDVLTSLGFDDGGYIIPLPKKSLMLINLPDSFRDELQTMHVSFYLREVGKLMFG” was “failed”; that for “MANYEFSQVSGDRPGCRLSRKAQIGLGVGLLVLIALVVGIVVILLRPRSLLVWTGEPTTKHFSDIFLGRCLIYTQILRPEMRDQNCQEILSTFKGAFVSKNPCDITREDYAPLVKLVTQTIPCDKTLFWSKSKHLAHQYTWIQGKMFTLEDTLLGYIADDLRWCGDPSTSDMNYVSCPHWSENCPNNPITMFWKVISQKFAEDACGVVQVMLDGSLREPFYKDSTFGSVEVFSLDPNKVHKLQAWVMHDIEGASSNACSSSSLNELKMIVQKRNMIFACVDNYRPARFLQCVKNPEHPSCRLNT” was “not failed”. The value for “MGTRWFAKNTTMSKNSIVIGVDLDGVCADFYGRMRQIASEWFERPIDELPEEVSWGLSEWGITNPSQYDSLHRFAVTQRELFSSMEAIPGARKYLRQLSDEGFRIRIITHRLFIHYFHATAVQQTVNWLDSHGIPYWDLCFVKEKTQVGADIYIEDSPENVAQLRGRGLFTICFGNSTNRHIEELRAASWQDVYDMIKAFVT” was “failed”; that for “MTLEWEEFLDPYIQAVGELKIKLRGIRKQYRKQNKHSPIEFVTGRVKPIESIKEKMARRGITYATLEHDLQDIAGLRVMVQFVDDVKEVVDILHKRQDMRIIQERDYITHRKASGYRSYHVVVEYTVDTINGAKTILAEIQIRTLAMNFWATIEHSLNYKYQGDFPDEIKKRLEITARIAHQLDEEMGEIRDDIQEAQALFDPLSRKLNDGVGNSDDTDEEYR” was “not failed”. Turning to “MKADKWNHVETARYFRDLQENEVRTMHYLGLAYVVLSRRPNLQLKVPLSTQNYEDGAIVGAGERGGYALQLLFTCAANYPLARPLVEIVEKRNVSDAFEQVLRKEIDLILEEHLGLQMIVPVVTRLQITLNTEMKR”, the protein production entry is given as “not failed”.

For the sequence “MLKIYVVDNGGQWTHREWRVLRELGVDTKIVPNDIDSSELDGLDGLVLSGGAPNIDEELDKLGSVGKYIDDHNYPILGICVGAQFIALHFGASVVKAKHPEFGKTKVSVMHSENIFGGLPSEITVWENHNDEIINLPDDFTLAASSATCQVQGFYHKTRPIYATQFHPEVEHTQYGRDIFRNFIGICASYREIQKENFQH”, the protein production entry is listed as “not failed”.

For “MADRPHPYDRAPGGSSGSHDRTGVFRRNPDGGLPDRIDSLYRPEPAARSASDAAATRRLSRTSGTPPRRPTPRSRGRDSGGWERRERERRARRRKKAAVLVLVLLLLLPTVGYLWANSRLNRVAALVPYEGRPDDQPGTTYLIVGSDSREGLSDEDMEALRTGKAEGKRTDTIMVLYVPTEGRPAIISVPRDSYVEIPGIGANKINAAYAEALGGGPATLVRTFEQASGVRIDHYVEIGFAGFVDIVDAVGGVELCPEEAMEDPKAGLDIEAGCQVMDGPTALGYVRTRATPRADLDRIQRQREFFSALIQQATAPSTLFNPFRSIPLVLSGTSTFSVDEGDSLMDLAWLALAMRDSPATTAVPVGSTPTLDVGSVVLWDEARAEEMFAAMREGRPIPESAMQD”, the protein production result is “failed”.
